B2: VcDnaB, replicative helicase DnaB from Vibrio cholerae (enzyme)
chain: MADPRTDNRNRKIPDAQVDAIKVPPHSLEAEQSVIGGLLLDNERWDTVSEHVMTQDFYSRPHRLIFDGVKSILEAGKPLDLITLSEYLEQREQLEDVGGFAYLADLAKNTPSAANINAYAEIVAERALVRNLIGVANEIADAGYDPQGRNAEDLLDLAESKVFAIAEARTSENEGPKNVDSILERTLERIELLYKTPQDGVTGVNTGFTDLNKKTAGLQGSDLIIVAARPSMGKTTFAMNLCENAAMEQDKPVLIFSLEMPAEQIMMRMLASLSRVDQTKIRTGQLDDEDWARISSTMGILMEKKNMYIDDSSGLTPTEVRSRARRIAREHGGLSLIMVDYLQLMRVPALTDNRTLEIAEISRSLKALAKELNVPVVALSQLNRSLEQRADKRPVNSDLRESGSIEQDADLIMFIYRDEVYHPDSPLKGTAEIIIGKQRNGPIGSVRLTFQGHYSRFDNYAGPAFDDE
notes: DnaB replicative helicase, Vibrio cholerae; seen as full-length protein without proteolysis on SDS-PAGE of the crystals; NTD 22-175 and CTD 200-461 of PDB 6t66 were the search models

Data set [1] has as its target B2. As to the kind of experiment: intrinsic fluorescence variation along a thermal ramp (Tycho NT.6 nano-DSF); 20 µM of each protein in 50 mM HEPES pH 7.5, 150 mM NaCl, 1 mM ATP; 350/330 nm ratio, 35 to 95°C, compared with the ratio predicted in the absence of interaction; three to five replicates. Conditions: both partners purified.
Data set [2] concerns the molecule itself. As to the kind of experiment: crystal structure; VcDnaB (0.115 mM monomer) pre-incubated with 2 mM ADP and 5 mM MgCl2, VcDciA added to 0.138 mM; crystals at 18°C in 0.1 M sodium acetate pH 4.8-5.6, 0.7-0.9 M potassium/sodium tartrate; 2.9 Å.

B1: EcDnaC, helicase loader DnaC from Escherichia coli (natural protein)
chain: MKNVGDLMQRLQKMMPAHIKPAFKTGEELLAWQKEQGAIRSAALERENRAMKMQRTFNRSGIRPLHQNCSFENYRVECEGQMNALSKARQYVEEFDGNIASFIFSGKPGTGKNHLAAAICNELLLRGKSVLIITVADIMSAMKDTFRNSGTSEEQLLNDLSNVDLLVIDEIGVQTESKYEKVIINQIVDRRSSSKRPTGMLTNSNMEEMTKLLGERVMDRMRLGNSLWVIFNWDSYRSRVTGKEY
notes: DnaC helicase loader, Escherichia coli; source: overexpressed in E. coli, purified as described in Marsin et al. (2021)
Take B1: the binding result in data set [1] is recorded as “binds”.

For the molecule B2, the binding result in data set [2] is listed as “binds”.

The record behind these values is paper PMC9912922, “The LH–DH module of bacterial replicative helicases is the common binding site for DciA and other helicase loaders” (Acta Crystallographica. Section D, Structural Biology, 2023).
